Biological target: MDM2 25-109 (Homo sapiens), Q00987
Assay: BLI competition
Details: modification not given

- Kd: 4.7 nM
Binder: AAFAAYWAALAAK [peptide 34]
